According to PMC4912689, “The Extracellular Surface of the GLP-1 Receptor Is a Molecular Trigger for Biased Agonism” (Cell, 2016):

B1: unnamed (parent)
chain 1: HSQGTFTSDYSKYLDSRRAQDFVQWLMNTKRNRNNIA
chain 2: RPQGATVSLWETVQKWREYRRQCQRSLTEDPPPATDLFCNRTFDEYACWPDGEPGSFVNVSCPWYLPWASSVPQGHVYRFCTAEGLWLQKDNSSLPWRDLSECEESKRGERSSPEEQLLFLYIIYTVGYALSFSALVIASAILLGFRHLHCTRNYIHLNLFASFILRALSVFIKDAALKWMYSTAAQQHQWDGLLSYQDSLSCRLVFLLMQYCVAANYYWLLVEGVYLYTLLAFSVLSEQWIFRLYVSIGWGVPLLFVVPWGIVKYLYEDEGCWTRNSNMNYWLIIRLPILFAIGVNFLIFVRVICIVVSKLKANLMCKTDIKCRLAKSTLTLIPLLGTHEVIFAFVMDEHARGTLRFIKLFTELSFTSFQGLMVAILYCFVNNEVQLEFRKSWERWRLEHLHIQRDSSMKPLKCPTSSLSSGATAGSSMYTATCQASCS

Variants of: B1
Assay: radioligand inhibition binding (competition with 125I-exendin-4(9-39))
Conditions: read off a plot

Variant | log10 ratio
chain 2 RPQGATVSLWETVQKWREYRRQCQRSLTEDPPPATDLFCNRTFDEYACWPDGEPGSFVNVSCPWYLPWASSVPQGHVYRFCTAEGLWLQKDNSSLPWRDLSECEESKRGERSSPEEQLLFLYIIYTVGYALSFSALVIASAILLGFRHLHCTRNYIHLNLFASFILRALSVFIKDAALKWMYSTAAQQHQWDGLLSYQASLSCRLVFLLMQYCVAANYYWLLVEGVYLYTLLAFSVLSEQWIFRLYVSIGWGVPLLFVVPWGIVKYLYEDEGCWTRNSNMNYWLIIRLPILFAIGVNFLIFVRVICIVVSKLKANLMCKTDIKCRLAKSTLTLIPLLGTHEVIFAFVMDEHARGTLRFIKLFTELSFTSFQGLMVAILYCFVNNEVQLEFRKSWERWRLEHLHIQRDSSMKPLKCPTSSLSSGATAGSSMYTATCQASCS [chain 2 D199A] | -0.25 ΔpKi
chain 2 RPQGATVSLWETVQKWREYRRQCQRSLTEDPPPATDLFCNRTFDEYACWPDGEPGSFVNVSCPWYLPWASSVPQGHVYRFCTAEGLWLQKDNSSLPWRDLSECEESKRGERSSPEEQLLFLYIIYTVGYALSFSALVIASAILLGFRHLHCTRNYIHLNLFASFILRALSVFIKDAALKWMYSTAAQQHQWDGLLSYQDSLSCRLVFLLMQYCVAANYYWLLVEGVYLYTLLAFSVLSEQWIFRLYVSIGWGVPLLFVVPWAIVKYLYEDEGCWTRNSNMNYWLIIRLPILFAIGVNFLIFVRVICIVVSKLKANLMCKTDIKCRLAKSTLTLIPLLGTHEVIFAFVMDEHARGTLRFIKLFTELSFTSFQGLMVAILYCFVNNEVQLEFRKSWERWRLEHLHIQRDSSMKPLKCPTSSLSSGATAGSSMYTATCQASCS [chain 2 G262A] | 0.1 ΔpKi
chain 2 RPQGATVSLWETVQKWREYRRQCQRSLTEDPPPATDLFCNRTFDEYACWPDGEPGSFVNVSCPWYLPWASSVPQGHVYRFCTAEGLWLQKDNSSLPWRDLSECEESKRGERSSPEEQLLFLYIIYTVGYALSFSALVIASAILLGFRHLHCTRNYIHLNLFASFILRALSVFIKDAALKWMYSTAAQQHQWDGLLSYQDSLSCRLVFLLMQYCVAANYYWLLVEGVYLYTLLAFSVLSEQWIFRLYVSIGWGVPLLFVVPWGIVKYLYEDAGCWTRNSNMNYWLIIRLPILFAIGVNFLIFVRVICIVVSKLKANLMCKTDIKCRLAKSTLTLIPLLGTHEVIFAFVMDEHARGTLRFIKLFTELSFTSFQGLMVAILYCFVNNEVQLEFRKSWERWRLEHLHIQRDSSMKPLKCPTSSLSSGATAGSSMYTATCQASCS [chain 2 E271A] | -0.15 ΔpKi
chain 2 RPQGATVSLWETVQKWREYRRQCQRSLTEDPPPATDLFCNRTFDEYACWPDGEPGSFVNVSCPWYLPWASSVPQGHVYRFCTAEGLWLQKDNSSLPWRDLSECEESKRGERSSPEEQLLFLYIIYTVGYALSFSALVIASAILLGFRHLHCTRNYIHLNLFASFILRALSVFIKDAALKWMYSTAAQQHQWDGLLSYQDSLSCRLVFLLMQYCVAANYYWLLVEGVYLYTLLAFSVLSEQWIFRLYVSIGWGVPLLFVVPWGIVKYLYEDEGAWTRNSNMNYWLIIRLPILFAIGVNFLIFVRVICIVVSKLKANLMCKTDIKCRLAKSTLTLIPLLGTHEVIFAFVMDEHARGTLRFIKLFTELSFTSFQGLMVAILYCFVNNEVQLEFRKSWERWRLEHLHIQRDSSMKPLKCPTSSLSSGATAGSSMYTATCQASCS [chain 2 C273A] | 0.4 ΔpKi
chain 2 RPQGATVSLWETVQKWREYRRQCQRSLTEDPPPATDLFCNRTFDEYACWPDGEPGSFVNVSCPWYLPWASSVPQGHVYRFCTAEGLWLQKDNSSLPWRDLSECEESKRGERSSPEEQLLFLYIIYTVGYALSFSALVIASAILLGFRHLHCTRNYIHLNLFASFILRALSVFIKDAALKWMYSTAAQQHQWAGLLSYQDSLSCRLVFLLMQYCVAANYYWLLVEGVYLYTLLAFSVLSEQWIFRLYVSIGWGVPLLFVVPWGIVKYLYEDEGCWTRNSNMNYWLIIRLPILFAIGVNFLIFVRVICIVVSKLKANLMCKTDIKCRLAKSTLTLIPLLGTHEVIFAFVMDEHARGTLRFIKLFTELSFTSFQGLMVAILYCFVNNEVQLEFRKSWERWRLEHLHIQRDSSMKPLKCPTSSLSSGATAGSSMYTATCQASCS [chain 2 D192A] | -0.2 ΔpKi
chain 2 RPQGATVSLWETVQKWREYRRQCQRSLTEDPPPATDLFCNRTFDEYACWPDGEPGSFVNVSCPWYLPWASSVPQGHVYRFCTAEGLWLQKDNSSLPWRDLSECEESKRGERSSPEEQLLFLYIIYTVGYALSFSALVIASAILLGFRHLHCTRNYIHLNLFASFILRALSVFIKDAALKWMYSTAAQQHQWDGLLSYQDSLSCRLVFLLMQYCVAANYYWLLVEGVYLYTLLAFSVLSEQWIFRLYVSIGWGVPLLFVVPWGIVKYLYEDEGCWTRNSNMNYWLIIRLPILFAIGVNFLIFVRVICIVVSKLKANLMCKTDIKCRLAKSTLTLIPLLGTHEVIFAFVMDAHARGTLRFIKLFTELSFTSFQGLMVAILYCFVNNEVQLEFRKSWERWRLEHLHIQRDSSMKPLKCPTSSLSSGATAGSSMYTATCQASCS [chain 2 E350A] | -0.85 ΔpKi
chain 2 RPQGATVSLWETVQKWREYRRQCQRSLTEDPPPATDLFCNRTFDEYACWPDGEPGSFVNVSCPWYLPWASSVPQGHVYRFCTAEGLWLQKDNSSLPWRDLSECEESKRGERSSPEEQLLFLYIIYTVGYALSFSALVIASAILLGFRHLHCTRNYIHLNLFASFILRALSVFIKDAALKWMYSTAAQQHQWDGLLSYQDSLSCRLVFLLMQYCVAANYYWLLVEGVYLYTLLAFSVLSEQWIFRLYVSIGWGVPLLFVVPWGIVKYLYEDEGCWTRNSNMNYWLIIRLPILFAIGVNFLIFVRVICIVVSKLKANLMCKTDIKCRLAKSTLTLIPLLGTHEVIFAFVMDEHARGTLRFIKLATELSFTSFQGLMVAILYCFVNNEVQLEFRKSWERWRLEHLHIQRDSSMKPLKCPTSSLSSGATAGSSMYTATCQASCS [chain 2 F362A] | -0.15 ΔpKi
chain 2 RPQGATVSLWETVQKWREYRRQCQRSLTEDPPPATDLFCNRTFDEYACWPDGEPGSFVNVSCPWYLPWASSVPQGHVYRFCTAEGLWLQKDNSSLPWRDLSECEESKRGERSSPEEQLLFLYIIYTVGYALSFSALVIASAILLGFRHLHCTRNYIHLNLFASFILRALSVFIKDAALKWMYSTAAQQHQWDGLLSYQDSLSCRLVFLLMQYCVAANYYWLLVEGVYLYTLLAFSVLSEQWIFRLYVSIGWGVPLLFVVPWGIVKYLYADEGCWTRNSNMNYWLIIRLPILFAIGVNFLIFVRVICIVVSKLKANLMCKTDIKCRLAKSTLTLIPLLGTHEVIFAFVMDEHARGTLRFIKLFTELSFTSFQGLMVAILYCFVNNEVQLEFRKSWERWRLEHLHIQRDSSMKPLKCPTSSLSSGATAGSSMYTATCQASCS [chain 2 E269A] | -1.3 ΔpKi
chain 2 RPQGATVSLWETVQKWREYRRQCQRSLTEDPPPATDLFCNRTFDEYACWPDGEPGSFVNVSCPWYLPWASSVPQGHVYRFCTAEGLWLQKDNSSLPWRDLSECEESKRGERSSPEEQLLFLYIIYTVGYALSFSALVIASAILLGFRHLHCTRNYIHLNLFASFILRALSVFIKDAALKWMYSTAAQQHQWDGLLSYQDSLSCRLVFLLMQYCVAANYYWLLVEGVYLYTLLAFSVLSEQWIFRLYVSIGWGVPLLFVVPWGIVKYLYEDEACWTRNSNMNYWLIIRLPILFAIGVNFLIFVRVICIVVSKLKANLMCKTDIKCRLAKSTLTLIPLLGTHEVIFAFVMDEHARGTLRFIKLFTELSFTSFQGLMVAILYCFVNNEVQLEFRKSWERWRLEHLHIQRDSSMKPLKCPTSSLSSGATAGSSMYTATCQASCS [chain 2 G272A] | 0.15 ΔpKi
chain 2 RPQGATVSLWETVQKWREYRRQCQRSLTEDPPPATDLFCNRTFDEYACWPDGEPGSFVNVSCPWYLPWASSVPQGHVYRFCTAEGLWLQKDNSSLPWRDLSECEESKRGERSSPEEQLLFLYIIYTVGYALSFSALVIASAILLGFRHLHCTRNYIHLNLFASFILRALSVFIKDAALKWMYSTAAQQHQWDGLLSYQDSLSCRLVFLLMQYCVAANYYWLLVEGVYLYTLLAFSVLSEQWIFRLYVSIGWGVPLLFVVPWGIVKYLYEDEGCWTRNSNMNYWLIIRLPILFAIGVNFLIFVRVICIVVSKLKANLMCKTDIKCRLAKSTLTLIPLLGTHEVIFAFVMDEHARGTLRAIKLFTELSFTSFQGLMVAILYCFVNNEVQLEFRKSWERWRLEHLHIQRDSSMKPLKCPTSSLSSGATAGSSMYTATCQASCS [chain 2 F358A] | -1.1 ΔpKi
chain 2 RPQGATVSLWETVQKWREYRRQCQRSLTEDPPPATDLFCNRTFDEYACWPDGEPGSFVNVSCPWYLPWASSVPQGHVYRFCTAEGLWLQKDNSSLPWRDLSECEESKRGERSSPEEQLLFLYIIYTVGYALSFSALVIASAILLGFRHLHCTRNYIHLNLFASFILRALSVFIKDAALKWMYSTAAQQHQWDGLLSYQDSLSCRLVFLLMQYCVAANYYWLLVEGVYLYTLLAFSVLSEQWIFRLYVSIGWGVPLLFVVPWGIVKYLYEAEGCWTRNSNMNYWLIIRLPILFAIGVNFLIFVRVICIVVSKLKANLMCKTDIKCRLAKSTLTLIPLLGTHEVIFAFVMDEHARGTLRFIKLFTELSFTSFQGLMVAILYCFVNNEVQLEFRKSWERWRLEHLHIQRDSSMKPLKCPTSSLSSGATAGSSMYTATCQASCS [chain 2 D270A] | -1 ΔpKi
chain 2 RPQGATVSLWETVQKWREYRRQCQRSLTEDPPPATDLFCNRTFDEYACWPDGEPGSFVNVSCPWYLPWASSVPQGHVYRFCTAEGLWLQKDNSSLPWRDLSECEESKRGERSSPEEQLLFLYIIYTVGYALSFSALVIASAILLGFRHLHCTRNYIHLNLFASFILRALSVFIKDAALKWMYSTAAQQHQWDGLLSYQDSLSCRLVFLLMQYCVAANYYWLLVEGVYLYTLLAFSVLSEQWIFRLYVSIGWGVPLLFVVPWGIVKYLYEDEGCWTRNSNMNYWLIIRLPILFAIGVNFLIFVRVICIVVSKLKANLMCKTDIKCRLAKSTLTLIPLLGTHEVIFAFVMDEHARATLRFIKLFTELSFTSFQGLMVAILYCFVNNEVQLEFRKSWERWRLEHLHIQRDSSMKPLKCPTSSLSSGATAGSSMYTATCQASCS [chain 2 G354A] | -0.45 ΔpKi
chain 2 RPQGATVSLWETVQKWREYRRQCQRSLTEDPPPATDLFCNRTFDEYACWPDGEPGSFVNVSCPWYLPWASSVPQGHVYRFCTAEGLWLQKDNSSLPWRDLSECEESKRGERSSPEEQLLFLYIIYTVGYALSFSALVIASAILLGFRHLHCTRNYIHLNLFASFILRALSVFIKDAALKWMYSTAAQQHQWDGLLSYQDSLSCRLVFLLMQYCVAANYYWLLVEGVYLYTLLAFSVLSEQWIFRLYVSIGWGVPLLFVVPWGIVKYLYEDEGCWTRNSNMNYWLIIRLPILFAIGVNFLIFVRVICIVVSKLKANLMCKTDIKCRLAKSTLTLIPLLGTHEVIFAFVMDEHARGTLRFIKLFTALSFTSFQGLMVAILYCFVNNEVQLEFRKSWERWRLEHLHIQRDSSMKPLKCPTSSLSSGATAGSSMYTATCQASCS [chain 2 E364A] | -0.5 ΔpKi
chain 2 RPQGATVSLWETVQKWREYRRQCQRSLTEDPPPATDLFCNRTFDEYACWPDGEPGSFVNVSCPWYLPWASSVPQGHVYRFCTAEGLWLQKDNSSLPWRDLSECEESKRGERSSPEEQLLFLYIIYTVGYALSFSALVIASAILLGFRHLHCTRNYIHLNLFASFILRALSVFIKDAALKWMYSTAAQQHQWDGLLSYQDSLSCRLVFLLMQYCVAANYYWLLVEGVYLYTLLAFSVLSEQWIFRLYVSIGWGVPLLFVVPWGIVKYLYEDEGCWTRNSNMNYWLIIRLPILFAIGVNFLIFVRVICIVVSKLKANLMCKTDIKCRLAKSTLTLIPLLGTHEVIFAFVMAEHARGTLRFIKLFTELSFTSFQGLMVAILYCFVNNEVQLEFRKSWERWRLEHLHIQRDSSMKPLKCPTSSLSSGATAGSSMYTATCQASCS [chain 2 D349A] | -0.3 ΔpKi
